Data as given in patent US11951131B2, “Anti-SLAMF7 chimeric antigen receptors” (The United States of America, as represented by the …, priority 2018, dated 2024).

Tests used:
Format in all cases: cell-based, human
SLAMF7-RPMI = assay: IFN-gamma ELISA, CAR T cells cultured overnight with SLAMF7-RPMI target cells
Text: (§1) MM.1S is a SLAMF7^+ multiple myeloma cell line that was obtained from American Type Culture Collection (ATCC). A549 is a BCMA-negative lung cancer cell line (ATCC). TC71 is a BCMA-negative sarcoma cell line. CCRF-CEM, 293T, and A549 are SLAMF7-negative cell lines (ATCC). COL0207, HepG2, U251, Panc10.05, and TC71 are […] that were kind gifts from Dr. Steven Rosenberg, National Cancer Institute. SLAMF7-K562 are K562 cells (ATCC) which were transduced with the gene for full-length SLAMF7. SLAMF7-RPMI are RPMI8226 cells (ATCC) which were transduced with the gene for full-length SLAMF7. NGFR-K562 are K562 cells which were transduced with the gene for low-affinity nerve growth factor (Kochenderfer et al., J. Immunother., 32(7): 689-702 (2009)). All of the human samples mentioned were obtained from patients enrolled in IRB-approved clinical trials at the National Cancer Institute.
(§2) One-hundred thousand SLAMF7^+ or SLAMF7-negative target cells were combined with 100,000 CAR-transduced T cells in duplicate wells of a 96 well round bottom plate in 200 µL of AIM V™ medium (Invitrogen) plus 5% human serum. The plates were incubated at 37° C. for 18-20 hours. Following the incubation, ELISAs (enzyme-linked immunosorbent assays) for IFNγ were performed by using standard methods.
(§3) The T cells columns indicate whether T cells were transduced with Luc90-CD828Z, Luc63-CD828Z, or were untransduced. The % CAR^+ in Table B-1 was determined by staining the T cells with Protein L. Except for the % CAR^+ column, all values are pg/mL of IFN-gamma. T cells that were either untransduced or transduced with one of the indicated CARs were cultured with target cells overnight and a standard IFN-gamma ELISA was performed on the culture supernatant.
(§4) All values are pg/mL of IFN-gamma. T cells that were either untransduced or transduced with one of the indicated CARs were cultured with target cells overnight, and a standard IFN-gamma ELISA was performed on the culture supernatant.
(§5) The values in the cells are pg/mL of IFN-gamma. T cells that were either untransduced or transduced with one of the indicated CARs were cultured with target cells overnight, and a standard IFN-gamma ELISA was performed on the culture supernatant. The concentrations of 0, 50, or 200 ng/mL at the top of each column indicates the concentration of soluble SLAMF7 added to all T cell plus target cell overnight cultures in that column. The soluble SLAMF7 was added at the beginning of the overnight culture.

SLAMF7-K562 = assay: IFN-gamma ELISA, CAR T cells cultured overnight with SLAMF7-K562 target cells
Text: as §1, §2, §3, §4

NGFR-K562 = assay: IFN-gamma ELISA, CAR T cells with NGFR-K562 target cells
Text: as §1, §2, §3, §4, §5

T cells only = assay: IFN-gamma ELISA, T cells only (no target cells)
Description: as §2, §3, §4, §5

MM.1S = assay: IFN-gamma ELISA, CAR T cells with MM.1S target cells; details: Table C
Text: as §1, §2, §4

H929 = assay: IFN-gamma ELISA, CAR T cells with H929 target cells; details: Table C
Description: as §2, §4

CCRF-CEM = assay: IFN-gamma ELISA, CAR T cells with CCRF-CEM target cells; details: Table C
Text: as §1, §2, §4

SLAMF7^+ target cells = assay: IFN-gamma ELISA and functional assays; details: 4-1BB-containing CAR compared to Luc90-CD828Z (Table C)
Description: as §2
CAR-expressing T cells cultured alone produced very low levels of IFNγ. IFNγ production of T cells expressing a CAR with a 4-1BB moiety, Luc90-CD8BBZ, was compared to IFNγ production of T cells expressing Luc90-CD828Z (Table C). […] Low levels of soluble SLAMF7 are found in the serum of some MM patients (see Tai, et al., Blood, 112(4): 1329-1337 (2008)). IFNγ ELISA assays were conducted to determine if adding SLAMF7 to cultures of anti-SLAMF7 CAR T cells plus target cells could block IFNγ release by the CAR T cells (Table D). IFNγ release by the CART cells was used as a measure recognition of the SLAMF7^+ target cells by the CAR T cells. The concentrations of soluble SLAMF7 added to the cultures were similar to those found in the blood of patients. Blocking of SLAMF7^+ target cell recognition by the soluble SLAMF7 was not observed. Also, activation of the anti-SLAMF7 CAR T cells by the soluble SLAMF7 was not observed.

293T = assay: IFN-gamma ELISA, CAR T cells with 293T target cells; details: Table B-1; SLAMF7-negative cell line
Text: as §1
(§6) One-hundred thousand SLAMF7^+ or SLAMF7-negative target cells were combined with 100,000 CAR-transduced T cells in duplicate wells of a 96 well round bottom plate in 200 µL of AIM V™ medium (Invitrogen) plus 5% human serum. […]
(§7) The T cells columns indicate whether T cells were transduced with Luc90-CD828Z, Luc63-CD828Z, or were untransduced. The % CAR^+ in Table B-1 was determined by staining the T cells with Protein L. Except for the % CAR^+ column, all values are pg/mL of IFN-gamma. […]

COLO 205 = assay: IFN-gamma ELISA, CAR T cells with COLO 205 target cells; details: Table B-1
Text: as §1, §6, §7

HepG2 = assay: IFN-gamma ELISA, CAR T cells with HepG2 target cells; details: Table B-1
Text: as §1, §6, §7

U251 = assay: IFN-gamma ELISA, CAR T cells with U251 target cells; details: Table B-2
Text: as §1, §6, §7

Panc 10.05 = assay: IFN-gamma ELISA, CAR T cells with Panc 10.05 target cells; details: Table B-2
Text: as §1, §6, §7

TC71 = assay: IFN-gamma ELISA, CAR T cells with TC71 target cells; details: Table B-2
Text: as §1, §6, §7

A549 = assay: IFN-gamma ELISA, CAR T cells with A549 target cells; details: Table B-2; SLAMF7-negative
Text: as §1, §6, §7

[1] = Table D, soluble SLAMF7 added 0 ng/ml
[2] = Table D, soluble SLAMF7 added 50 ng/ml
[3] = Table D, soluble SLAMF7 added 200 ng/ml

Luc90-CD8BBZ: anti-SLAMF7 CAR (SEQ ID NO: 29): Luc90-CD828Z with the CD28 moiety replaced with a 4-1BB moiety
IFN-gamma, target cells SLAMF7-RPMI8226 (SLAMF7-RPMI; Table C, overnight culture): 19713 pg/mL | IFN-gamma, target cells SLAMF7-K562 (SLAMF7-K562; Table C): 16697 pg/mL | IFN-gamma, target cells NGFR-K562 (NGFR-K562; Table C): 434 pg/mL | IFN-gamma, T cells only (T cells only; Table C): 531 pg/mL | IFN-gamma, target cells MM.1S (MM.1S): 5101 pg/mL | IFN-gamma, target cells H929 (H929): 856 pg/mL | IFN-gamma, target cells CCRF-CEM (CCRF-CEM): 278 pg/mL | background cytokine release (SLAMF7^+ target cells): Generally higher background cytokine release

B1: Luc63-CD828Z: anti-SLAMF7 CAR (SEQ ID NO: 28): identical to Luc90-CD828Z except scFv from humanized Luc63 antibody (protein)
chain: MALPVTALLLPLALLLHAARPDIQMTQSPSSLSASVGDRVTITCKASQDVGIAVAWYQQKPGKVPKLLIYWASTRHTGVPDRFSGSGSGTDFTLTISSLQPEDVATYYCQQYSSYPYTFGQGTKVEIKGSTSGSGKPGSGEGSTKGEVQLVESGGGLVQPGGSLRLSCAASGFDFSRYWMSWVRQAPGKGLEWIGEINPDSSTINYAPSLKDKFIISRDNAKNSLYLQMNSLRAEDTAVYYCARPDGNYWYFDVWGQGTLVTVSSFVPVFLPAKPTTTPAPRPPTPAPTIASQPLSLRPEACRPAAGGAVHTRGLDFACDIYIWAPLAGTCGVLLLSLVITLYCNHRNRSKRSRLLHSDYMNMTPRRPGPTRKHYQPYAPPRDFAAYRSRVKFSRSADAPAYQQGQNQLYNELNLGRREEYDVLDKRRGRDPEMGGKPRRKNPQEGLYNELQKDKMAEAYSEIGMKGERRRGKGHDGLYQGLSTATKDTYDALHMQALPPR
IFN-gamma, target cells SLAMF7-RPMI (SLAMF7-RPMI; Table B-1, overnight culture, ELISA on supernatant): 8123 pg/mL | IFN-gamma, target cells SLAMF7 RPMI 0 ng/ml (SLAMF7-RPMI; [1]): 3495 pg/mL | IFN-gamma, target cells SLAMF7 RPMI 50 ng/ml (SLAMF7-RPMI; [2]): 2.873 ng/mL | IFN-gamma, target cells CD319 RPMI 200 ng/ml (SLAMF7-RPMI; [3]): 3083 pg/mL | IFN-gamma, target cells SLAMF7-K562 (SLAMF7-K562; Table B-1, overnight culture): 7106 pg/mL | IFN-gamma, target cells SLAMF7-K562 (SLAMF7-K562; Table B-2, overnight culture): 7524 pg/mL | IFN-gamma, target cells 293T (293T): 38 pg/mL | IFN-gamma, target cells COLO 205 (COLO 205): 29 pg/mL | IFN-gamma, target cells HepG2 (HepG2): 33 pg/mL | IFN-gamma, target cells U251 (U251): 46 pg/mL | IFN-gamma, target cells Panc 10.05 (Panc 10.05): 53 pg/mL | IFN-gamma, target cells NGFR-K562 (NGFR-K562; Table B-2, SLAMF7-negative): 78 pg/mL | IFN-gamma, target cells NGFR K562 0 ng/ml (NGFR-K562; [1]): 191 pg/mL | IFN-gamma, target cells NGFR K562 50 ng/ml (NGFR-K562; [2]): 98 pg/mL | IFN-gamma, target cells NGFR K562 200 ng/ml (NGFR-K562; [3]): 83 pg/mL | IFN-gamma, target cells TC71 (TC71): 113 pg/mL | IFN-gamma, target cells A549 (A549): 76 pg/mL | IFN-gamma, T cells only (T cells only; Table B-2): 71 pg/mL | IFN-gamma, T cells 0 ng/ml (T cells only; Table D, no target cells, soluble SLAMF7 0 ng/ml): 20 pg/mL | IFN-gamma, T cells 50 ng/ml (T cells only; Table D, no target cells, soluble SLAMF7 50 ng/ml): 22 pg/mL | IFN-gamma, T cells 200 ng/ml (T cells only; Table D, no target cells, soluble SLAMF7 200 ng/ml): 30 pg/mL
